Results published in patent US20240199746A1 (published 2024).
Changes are numbered by the printed parent chain.

T1: Ax1 protein, extracellular domain (human, UniProt P30530 26-451)
T1 construct: extracellular domain; also called Axl; Ark
T1 sequence (looked up): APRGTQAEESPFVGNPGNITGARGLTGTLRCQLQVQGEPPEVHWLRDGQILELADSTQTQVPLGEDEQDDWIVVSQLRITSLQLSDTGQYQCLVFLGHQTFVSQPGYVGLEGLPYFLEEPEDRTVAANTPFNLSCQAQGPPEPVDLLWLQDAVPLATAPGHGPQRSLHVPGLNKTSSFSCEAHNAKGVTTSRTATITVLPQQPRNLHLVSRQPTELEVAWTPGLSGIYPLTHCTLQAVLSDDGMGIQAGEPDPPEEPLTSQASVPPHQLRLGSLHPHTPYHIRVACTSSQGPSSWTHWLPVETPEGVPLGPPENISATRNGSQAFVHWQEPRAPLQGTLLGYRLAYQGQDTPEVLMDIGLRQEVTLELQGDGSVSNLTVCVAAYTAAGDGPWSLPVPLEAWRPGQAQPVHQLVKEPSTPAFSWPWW

B1: LC-F092G (antibody, V domains shown)
VH: EVQLVQSGAEVKKPGATVKISCKVSGYSFTGHTMNWIRQPPGKGLEWIGLIKPSNGGTSYNQKFKGRVTISADKSISTAYLQWSSLKASDTAMYYCAHGHYESYFAMDYWGQGTLVTVSS
VL: DIQMTQSPSSLSASVGDRVTITCKASQDVSSAVAWYQQKPGQAPRLLIYWASTRHTGVPSRFSGSGSGTEFTLTISSLQPDDFATYYCQEHGSTPLTFGQGTKVEIK
notes: CPE single point mutant
B2: LC-P095A (antibody, V domains shown)
VH: B1 VH
VL: B1 VL with G92F, P95A
notes: CPE single point mutant
B3: LC-P095V (antibody, V domains shown)
VH: B1 VH
VL: B1 VL with G92F, P95V
notes: CPE single point mutant
B4: LC-P095S (antibody, V domains shown)
VH: B1 VH
VL: B1 VL with G92F, P95S
notes: CPE single point mutant
B5: LC-V029D (antibody, V domains shown)
VH: B1 VH
VL: B1 VL with V29D, G92F
notes: CPE single point mutant
B6: LC-V029G (antibody, V domains shown)
VH: B1 VH
VL: B1 VL with V29G, G92F
notes: CPE single point mutant
B7: LC-H091T (antibody, V domains shown)
VH: B1 VH
VL: B1 VL with H91T, G92F
notes: CPE single point mutant
B8: LC-H091S (antibody, V domains shown)
VH: B1 VH
VL: B1 VL with H91S, G92F
notes: CPE single point mutant
B9: LC-F092S (antibody, V domains shown)
VH: B1 VH
VL: B1 VL with G92S
notes: CPE single point mutant
B10: LC-F092N (antibody, V domains shown)
VH: B1 VH
VL: B1 VL with G92N
notes: CPE single point mutant
B11: LC-P095D (antibody, V domains shown)
VH: B1 VH
VL: B1 VL with G92F, P95D
notes: CPE single point mutant
B12: LC-P095W (antibody, V domains shown)
VH: B1 VH
VL: B1 VL with G92F, P95W
notes: CPE single point mutant
B13: LC-H091V (antibody, V domains shown)
VH: B1 VH
VL: B1 VL with H91V, G92F
notes: CPE single point mutant
B14: LC-P095T (antibody, V domains shown)
VH: B1 VH
VL: B1 VL with G92F, P95T
notes: CPE single point mutant
B15: LC-W050F (antibody, V domains shown)
VH: B1 VH
VL: B1 VL with W50F, G92F
notes: CPE single point mutant
B16: LC-P095C (antibody, V domains shown)
VH: B1 VH
VL: B1 VL with G92F, P95C
notes: CPE single point mutant
B17: LC-P095K (antibody, V domains shown)
VH: B1 VH
VL: B1 VL with G92F, P95K
notes: CPE single point mutant
B18: LC-H091C (antibody, V domains shown)
VH: B1 VH
VL: B1 VL with H91C, G92F
notes: CPE single point mutant
B19: LC-P095E (antibody, V domains shown)
VH: B1 VH
VL: B1 VL with G92F, P95E
notes: CPE single point mutant
B20: LC-H091Y (antibody, V domains shown)
VH: B1 VH
VL: B1 VL with H91Y, G92F
notes: CPE single point mutant
B21: LC-P095H (antibody, V domains shown)
VH: B1 VH
VL: B1 VL with G92F, P95H
notes: CPE single point mutant
B22: LC-V029N (antibody, V domains shown)
VH: B1 VH
VL: B1 VL with V29N, G92F
notes: CPE single point mutant
B23: LC-H091L (antibody, V domains shown)
VH: B1 VH
VL: B1 VL with H91L, G92F
notes: CPE single point mutant
B24: LC-V029W (antibody, V domains shown)
VH: B1 VH
VL: B1 VL with V29W, G92F
notes: CPE single point mutant
B25: LC-T097I (antibody, V domains shown)
VH: B1 VH
VL: B1 VL with G92F, T97I
notes: CPE single point mutant

Molecular target: T1, Ax1 protein, extracellular domain
Experiment: ELISA, mutant diluted 1:3
In short: (§1)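 Single-point-mutant antibody library from Comprehensive Positional Evolution, screened by ELISA for selective binding to the Ax1 extracellular domain at pH 6.0 over pH 7.4. Mutant antibodies tested at 1:3 and 1:9 dilutions.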

| Affinity ELISA CPE mutant ratio (1:3, pH 6.0/7.4) | Binder |
| --- | --- |
| 3.69 | B1 |
| 2.52 | B2 |
| 1.87 | B3 |
| 2.84 | B4 |
| 2.88 | B5 |
| 1.94 | B6 |
| 3.78 | B7 |
| 1.76 | B8 |
| 3.18 | B9 |
| 1.93 | B10 |
| 3.95 | B11 |
| 2.15 | B12 |
| 4.13 | B13 |
| 2.5 | B14 |
| 2.25 | B15 |
| 2.35 | B16 |
| 3.84 | B17 |
| 4 | B18 |
| 7.12 | B19 |
| 3.93 | B20 |
| 2.5 | B21 |
| 2.6 | B22 |
| 2.17 | B23 |
| 2.31 | B24 |
| 3.09 | B25 |

Molecular target: T1, Ax1 protein, extracellular domain
Experiment: ELISA, mutant diluted 1:9
In short: as §1

| Affinity ELISA CPE mutant ratio (1:9, pH 6.0/7.4) | Binder |
| --- | --- |
| 4.76 | B1 |
| 2.99 | B2 |
| 2.13 | B3 |
| 3.51 | B4 |
| 2.68 | B5 |
| 1.8 | B6 |
| 3.7 | B7 |
| 1.34 | B8 |
| 2.94 | B9 |
| 2 | B10 |
| 2.89 | B11 |
| 2.26 | B12 |
| 1.17 | B13 |
| 2.09 | B14 |
| 3.5 | B15 |
| 2.63 | B16 |
| 3.47 | B17 |
| 3.02 | B18 |
| 7.51 | B19 |
| 5.13 | B20 |
| 2.75 | B21 |
| 2.65 | B22 |
| 2.44 | B23 |
| 2.35 | B24 |
| 4.05 | B25 |
